The record followed here is the Immune Epitope Database (IEDB).

One experiment addresses HLA-A*26:01. Briefly: IEDB peptide-MHC binding, purified MHC/competitive/radioactivity; filed as Kd, often an IC50 or EC50 that approximates it; ≥ and ≤ were set here for values at or beyond the usual limits of such assays.
The target in the next experiment is HLA-B*15:01. Put plainly: IEDB peptide-MHC binding, purified MHC/direct/fluorescence; filed as Kd, often an IC50 or EC50 that approximates it; ≥ and ≤ were set here for values at or beyond the usual limits of such assays.
In another experiment the target is HLA-B*07:02. Described as above.
A further experiment addresses HLA-A*69:01. The experiment is described as above.
The target of experiment [1] is HLA-A*02:01. The description is as above.
The next experiment concerns the target HLA-B*51:01. Put plainly: IEDB peptide-MHC binding, purified MHC/competitive/radioactivity; filed as Kd, often an IC50 or EC50 that approximates it; ≥ and ≤ were set here for values at or beyond the usual limits of such assays.
The target in experiment [2] is HLA-A*02:01. Briefly: IEDB peptide-MHC binding, purified MHC/competitive/fluorescence; ≥ and ≤ were set here for values at or beyond the usual limits of such assays.
The target in a further experiment is HLA-A*01:01. Put plainly: IEDB peptide-MHC binding, purified MHC/direct/fluorescence; filed as Kd, often an IC50 or EC50 that approximates it; ≥ and ≤ were set here for values at or beyond the usual limits of such assays. The note with it: source organism: Human betaherpesvirus 6B.
The target of a further experiment is HLA-A*30:02. Put plainly: IEDB peptide-MHC binding, purified MHC/competitive/radioactivity; filed as Kd, often an IC50 or EC50 that approximates it; ≥ and ≤ were set here for values at or beyond the usual limits of such assays.
The target in a further experiment is HLA-B*27:05. Put plainly: IEDB peptide-MHC binding, purified MHC/direct/fluorescence; filed as Kd, often an IC50 or EC50 that approximates it; ≥ and ≤ were set here for values at or beyond the usual limits of such assays. The note with it: source organism: SARS-CoV1.
The next experiment addresses HLA-B*58:01. The description is as above.
The next experiment concerns the target HLA-A*11:01. The experiment is described as above. Conditions: source organism: SARS-CoV1.
The target in a further experiment is HLA-A*02:06. Put plainly: IEDB peptide-MHC binding, purified MHC/competitive/radioactivity; filed as Kd, often an IC50 or EC50 that approximates it; ≥ and ≤ were set here for values at or beyond the usual limits of such assays.
The next experiment addresses HLA-A*02:02. Described as above.
The target in another experiment is HLA-A*02:03. The experiment is described as above.
Where [3] appears, read: source organism: Dengue virus 1 Singapore/S275/1990.
[4] abbreviates: source organism: Dengue virus 2 Jamaica/1409/1983.
Where [5] appears, read: source organism: Sudan ebolavirus.
Where [6] appears, read: source organism: Dengue virus 1 Brazil/97-11/1997.
Setting [7] is: source organism: Zaire ebolavirus.
[8] abbreviates: source organism: Haemophilus influenzae.
The mark [9] stands for this setting: source organism: Vaccinia virus WR.
[10] abbreviates: source organism: Bacillus anthracis.
Setting [11] is: source organism: Mammarenavirus guanaritoense.
The mark [12] stands for this setting: source organism: SARS coronavirus Tor2.

Broadly, the Kd is the constant that tells how readily two partners part at equilibrium. With TSIGLLCVM, the Kd with HLA-A*26:01 (setting [3]) stood at 2450 nM.

For IVFATAARY, the equilibrium dissociation constant (Kd) with HLA-B*15:01 (source organism: Mycobacterium tuberculosis) is 161 nM.

In the experiment with HLA-B*07:02 (source organism: Homo sapiens), APRTLVLLL yielded a dissociation constant Kd of 145 nM.

Take SLFSLLPGV: the Kd in the experiment with HLA-A*69:01 (source organism: Amur virus) and in the experiment with HLA-A*02:01 [1] (source organism: Amur virus) was ≤ 1 nM in each case. Consider WPLNEAIMAV, for which the Kd in the experiment with HLA-B*51:01 (setting [4]) was found to be 470 nM.

For the sequence MISRMLINRF, the Kd with HLA-A*26:01 (setting [4]) was determined as 8330 nM. For orientation: IC50 means the concentration needed to halve the response being measured. For VMATEEPTT, the 50% inhibitory concentration (IC50) with HLA-A*02:01 [2] (setting [5]) was ≥ 144000 nM. For the sequence LAMGCYSQV, the dissociation constant Kd in the experiment with HLA-B*51:01 (source organism: Dengue virus 4 Philippines/H241/1956) came out at 140 nM. On to ICDDVLSKY, for which the Kd in the experiment with HLA-A*01:01 is 3180 nM; in the experiment with HLA-A*69:01 (source organism: Human betaherpesvirus 6B) it was 2690 nM. Turning to LHPASAWTLY, the equilibrium dissociation constant (Kd) with HLA-A*30:02 (setting [6]) amounted to 53.7 nM.

With ERSDKSYEH, the Kd with HLA-B*27:05 amounted to 8450 nM; with HLA-B*58:01 (source organism: SARS-CoV1) it was 1840 nM; with HLA-A*11:01, 16800 nM.

For KIMASENSS, the 50% inhibitory concentration (IC50) with HLA-A*02:01 [2] (setting [7]) is ≥ 119000 nM. As for LQKGGVIVY, the dissociation constant (Kd) with HLA-B*15:01 (setting [8]) is 478 nM.

Consider KTSQVPKLL, for which the IC50 with HLA-A*02:01 [2] (source organism: Variola virus) was found to be 23500 nM.

As to ASTVIYRGV, in the experiment with HLA-A*02:01 [2] (setting [5]), the concentration for half-maximal inhibition (IC50) worked out at 7440 nM. As to TVITPMMRH, the Kd with HLA-A*26:01 (setting [6]) stood at 1700 nM. As for MLSEGRMNS, the IC50 in the experiment with HLA-A*02:01 [2] (source organism: Vaccinia virus) was determined as 6520 nM.

On to FDFCEGTTVV, for which the dissociation constant (Kd) in the experiment with HLA-B*51:01 (setting [4]) amounted to 2650 nM. Consider ELCEDTITY, for which, in the experiment with HLA-A*26:01 (setting [4]), the Kd turned out to be 754 nM. For the sequence MLTNAISSRV, the Kd with HLA-A*02:06 (setting [9]) stood at 224 nM; with HLA-A*02:02 (setting [9]) it was 53 nM; with HLA-A*02:03 (setting [9]), 0.105 nM.

For the sequence GTGPCAGDF, in the experiment with HLA-A*02:01 [2] (setting [7]), the 50% inhibitory concentration (IC50) is ≥ 512000 nM. Take LAYYNSCML: the equilibrium dissociation constant (Kd) was ≥ 21500 nM with HLA-A*02:06 (setting [9]), 12800 nM with HLA-A*02:02 (setting [9]) and 15500 nM with HLA-A*02:03 (setting [9]).

Turning to IWLKLRDSY, the dissociation constant Kd in the experiment with HLA-A*30:02 (setting [6]) came to 673 nM. Consider KLRSSPPIPM, for which the Kd with HLA-A*02:06 (setting [9]) came to 2210 nM; with HLA-A*02:02 (setting [9]), 57.6 nM; with HLA-A*02:03 (setting [9]) it was 134 nM. In the case of ILYDTGSSW, the Kd came out at 92.8 nM with HLA-B*58:01 (setting [8]), 119 nM with HLA-B*15:01 (setting [8]) and 10200 nM with HLA-A*02:01 [1] (setting [8]). Turning to ILNGGLGNA, the dissociation constant Kd with HLA-A*69:01 (setting [10]) was ≥ 20000 nM; with HLA-A*02:01 [1] (setting [10]), 317 nM. As for QVKDNIISRT, the Kd in the experiment with HLA-A*02:06 (setting [9]) was ≥ 34200 nM; with HLA-A*02:02 (setting [9]), 17800 nM; with HLA-A*02:03 (setting [9]) it was 421 nM. Take QLSGLGINAV: the 50% inhibitory concentration (IC50) with HLA-A*02:01 [2] (source organism: Hepatitis C virus subtype 1b) amounted to 123 nM.

RPPIFIRRL: in the experiment with HLA-B*07:02 (source organism: Human herpesvirus 4 strain B95-8), the dissociation constant (Kd) is 356 nM. Consider ETLLLLGLMI, for which, in the experiment with HLA-A*26:01 (source organism: Dengue virus 3 Martinique/1243/1999), the dissociation constant Kd is ≥ 54400 nM.

As for AMHDKKIDI, the dissociation constant (Kd) with HLA-A*02:06 (setting [9]) is ≥ 42000 nM; in the experiment with HLA-A*02:02 (setting [9]), 17200 nM; with HLA-A*02:03 (setting [9]), 1520 nM. On to ISTIGIRPS, for which the concentration for half-maximal inhibition (IC50) in the experiment with HLA-A*02:01 [2] (setting [5]) was ≥ 116000 nM. As to TNAEFTFQL, the Kd in the experiment with HLA-A*02:06 (setting [11]) was 3620 nM; with HLA-A*02:02 (setting [11]), 404 nM; with HLA-A*02:03 (setting [11]), 15000 nM. Consider KIYTLIYRQL, for which the equilibrium dissociation constant (Kd) with HLA-A*02:06 (setting [9]) amounted to 912 nM; with HLA-A*02:02 (setting [9]), 707 nM; in the experiment with HLA-A*02:03 (setting [9]), 1030 nM. For TLPELNLSL, the Kd stood at 802 nM with HLA-A*02:06 (setting [9]), 135 nM in the experiment with HLA-A*02:02 (setting [9]) and 22.6 nM with HLA-A*02:03 (setting [9]). Take GGFSTLDKI: the half-maximal inhibitory concentration (IC50) in the experiment with HLA-A*02:01 [2] (source organism: Variola virus) was ≥ 124000 nM.

Turning to TQVKELGIAI, the results for the Kd in the experiment with HLA-A*02:06 (setting [9]), in the experiment with HLA-A*02:02 (setting [9]) and in the experiment with HLA-A*02:03 (setting [9]) were 3.87 nM, 2170 nM and 704 nM, respectively. As for VPLQWIASAI, the Kd with HLA-B*51:01 (source organism: Dengue virus 3 Sri Lanka/1266/2000) was determined as 21.7 nM.

With FTSDYPFYV, the Kd was 3.58 nM with HLA-A*02:06 (setting [9]), 2.07 nM with HLA-A*02:02 (setting [9]) and 3.91 nM with HLA-A*02:03 (setting [9]). Turning to NLWNTFTRL, the Kd with HLA-A*02:06 (setting [12]) was determined as 166 nM; with HLA-A*02:02 (setting [12]), 24 nM; in the experiment with HLA-A*02:03 (setting [12]), 194 nM. RFKGEDGCWY: the Kd with HLA-A*30:02 (setting [3]) came to 8.19 nM. HTKFWISDNT: the Kd in the experiment with HLA-A*02:06 (setting [9]) is ≥ 69800 nM; in the experiment with HLA-A*02:02 (setting [9]), ≥ 21500 nM; with HLA-A*02:03 (setting [9]), ≥ 60200 nM. In the case of FLIVAALVFL, the Kd with HLA-A*02:06 (setting [12]) was 3.64 nM; with HLA-A*02:02 (setting [12]), 3.02 nM; in the experiment with HLA-A*02:03 (setting [12]) it was 162 nM. Take NAVTTNNLL: the figures for the Kd with HLA-A*02:06 (setting [9]), in the experiment with HLA-A*02:02 (setting [9]) and in the experiment with HLA-A*02:03 (setting [9]) were 202 nM, 1850 nM and ≥ 24900 nM, respectively.

Turning to ITNILGGVL, the Kd with HLA-A*02:06 (setting [9]) is ≥ 32400 nM; in the experiment with HLA-A*02:02 (setting [9]), 7380 nM; in the experiment with HLA-A*02:03 (setting [9]) it was 2440 nM.
